Substitutions are numbered along the chain they refer to.

Results on ten molecules are retold here after publication PMC7754472, “RPW8.1 enhances the ethylene‐signaling pathway to feedback‐attenuate its mediated cell death and disease resistance in Arabidopsis”.

In data set [1] the target is T1, GST-ORA59 (Arabidopsis thaliana, UniProt Q9LND1 1-244). Nature of the data set: EMSA; Chemiluminescent EMSA kit (Beyotime) EMSA/Gel-Shift binding buffer; salt, pH and temperature not stated. The note with it: protein: recombinant, tags: N-terminal GST (pGEX), blunt. In general terms: Mobility shift assays separate free from complexed probe on a gel.
Data set [2] addresses T1, GST-ORA59. Put plainly: competition; 5-, 25-, 50-fold excess vs biotin-OBS1; Chemiluminescent EMSA kit (Beyotime) EMSA/Gel-Shift binding buffer; salt, pH and temperature not stated. The note with it: protein: recombinant; tags: N-terminal GST (pGEX); blunt.
Data set [3] concerns the target T1, GST-ORA59. Put plainly: competition; 5-, 25-, 50-fold excess vs biotin-OBS2; Chemiluminescent EMSA kit (Beyotime) EMSA/Gel-Shift binding buffer; salt, pH and temperature not stated. The note with it: protein: recombinant; tags: N-terminal GST (pGEX); blunt.

T1 sequence (Q9LND1 whole entry): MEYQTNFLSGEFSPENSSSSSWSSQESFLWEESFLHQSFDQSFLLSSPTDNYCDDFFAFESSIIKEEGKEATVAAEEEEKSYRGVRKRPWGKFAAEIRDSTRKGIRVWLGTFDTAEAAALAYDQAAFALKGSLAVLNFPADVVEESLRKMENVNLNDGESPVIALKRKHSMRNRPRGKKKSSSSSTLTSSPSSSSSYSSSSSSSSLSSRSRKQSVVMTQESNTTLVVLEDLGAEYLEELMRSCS

B1: OBS1 (dsDNA)
DNA 1: ACGTAATTCAATAATATTCTACGTAATTTAATACTCACGACAACTTGCATAT
DNA 2: ATATGCAAGTTGTCGTGAGTATTAAATTACGTAGAATATTATTGAATTACGT
For the molecule B1, the binding result in the data set with GST-ORA59 [1] (label: 3' biotin (probe)) was “binds”.

B2: mutant competitor V (OBS1, T/A-rich motif mutant) (dsDNA)
DNA 1: B1 DNA 1 with T12G, T15G, T29C, T32G
DNA 2: B1 DNA 2 with A21C, A24G, A38C, A41C
As for B2, the binding result with GST-ORA59 [2] is recorded as “no binding”.

B3: OBS4 (dsDNA)
DNA 1: ACATAAAACTATTTAATATGGTTCCATCCTTCCATGTACATAGATTCCTCT
DNA 2: AGAGGAATCTATGTACATGGAAGGATGGAACCATATTAAATAGTTTTATGT
Take B3: in the data set with GST-ORA59 [1] (label: 3' biotin), the binding result is on record as “binds”.

B4: OBS2 (dsDNA)
DNA 1: TTGCATATAGATCCAACGATCTCCTCTTACCTAGAAAAAGAGAGAGTTGTTGACCCGTA
DNA 2: TACGGGTCAACAACTCTCTCTTTTTCTAGGTAAGAGGAGATCGTTGGATCTATATGCAA
For B4, the binding result with GST-ORA59 [1] (label: 3' biotin (probe)) is “binds”.

B5: mutant competitor II (OBS2, GAG-motif mutant) (dsDNA)
DNA 1: B4 DNA 1 with G42C, G44C
DNA 2: B4 DNA 2 with C16G, C18G
On to B5, for which, in the data set with GST-ORA59 [3], the binding result is listed as “binds”.

B6: mutant competitor IV (OBS2, unnamed motif and TCT-motif mutant) (dsDNA)
DNA 1: B4 DNA 1 with C24G, T25A
DNA 2: B4 DNA 2 with A35T, G36C
As to B6, the binding result with GST-ORA59 [3] is “binds”.

B7: mutant competitor I (OBS2, T/A-rich motif mutant) (dsDNA)
DNA 1: B4 DNA 1 with T6G, T8C, A33C
DNA 2: B4 DNA 2 with T27G, A52G, A54C
Take B7: the binding result with GST-ORA59 [3] is “no binding”.

B8: mutant competitor III (OBS2, BOX-W1 mutant) (dsDNA)
DNA 1: B4 DNA 1 with T51A, G52C
DNA 2: B4 DNA 2 with C8G, A9T
In the case of B8, the binding result with GST-ORA59 [3] is “binds”.

B9: OBS3 (dsDNA)
DNA 1: TATGAGTCAATCTCTTGAATTGTCTTCATATAATTAAAACCACTCGTTAACTTGTTAA
DNA 2: TTAACAAGTTAACGAGTGGTTTTAATTATATGAAGACAATTCAAGAGATTGACTCATA
For the molecule B9, the binding result with GST-ORA59 [1] (label: 3' biotin) was “binds”.

B10: OBS5 (dsDNA)
DNA 1: ATGTACATAGATTCCTCTATATTCACCTCGAGAGCTAAACAACTACTTTCAAAAA
DNA 2: TTTTTGAAAGTAGTTGTTTAGCTCTCGAGGTGAATATAGAGGAATCTATGTACAT
Take B10: in the data set with GST-ORA59 [1] (label: 3' biotin), the binding result is given as “binds”.
